Experimental data: article PMC7100586

Molecular target: clathrin heavy chain (Sus scrofa)
Experiment: cryo-EM structure

stoichiometry N: 3
Substance: clathrin heavy chain (natural protein)
